B1: ADI-41475 (antibody, V domains shown)
VH: QVQLQESGPGLVKPSQTLSLTCAISGDSVSSNSAAWNWIRQSPSRGLEWLGRTYYRSKWWTDYAVSVKSRITINPDTSKNQFSLQLNSVTPEDTAVYYCARDPDSGNYFHYYGMDVWGQGTTVTVSS
VL: ETTLTQSPATLSLSPGERATLSCRASQSASSYLAWYQQKPGQAPRLLIYDASKRATGIPARFSGSGSGTDFSLTISSLEPEDFAVYYCQLRSKWPPYTFGQGTKVEIK
B2: ADI-41480 (antibody, V domains shown)
VH: EVQLLESGPGLVRPSGTLSLTCTVSGDSISGSNWWAWVRQPPGRRLEWIGEIYYRGATDYNSSLKSRVIISVDNSKNQFSLNLRSVTAADTAIYYCARVEKFATSGYYISYFDYWGQGTLVTVSS
VL: DIRVTQSPSSLSASVGDRVTITCRASQSISTYLNWYQHNPGKAPKLLIYAASSLQSGVPSRFSGSGSGTHFTLTISSLQPADFSTYYCQQSYSSPWTFGQGTKVEIK
B3: ADI-41481 (antibody, V domains shown)
VH: QVQLVESGPGLVKPSETLSLACSVSGVSISTYYWTWIRQPPGKGLEWIGYISYSGSTNYNPSLKSRVTISADTSKNQFSLRLNSVTAADTAVYYCARTYYDFWSTYYGEFDHWGHGTLVTVSS
VL: SYELTQPLSVSVALGQTARITCGGNNIESKNVHWYQQKPGQAPVVVMYRDTNRPSGIPERFSGSNSGNTATLTISRAQAGDEADYYCQVWDSGTAGVVFGGGTKVTVL
notes: also called Ab 763; Antibody Number 763
B4: ADI-41482 (antibody, V domains shown)
VH: QVQLVQSGAEVKKPGSSVKVSCKASGGTFGSYTINWVRQAPGQGLEWMGGIIPIFGATNYAQNFQGRVSITADKSTATAYMDLISLRSEDTAVYYCARLGRSSPLNSCTTTSCYFWGRGMDVWGQGTTVTVSS
VL: QSVLIQPASVSGSPGQSITISCTGTISDVGIYNYVSWYQQHPGKAPKLIISDVSDRPSGVSNRFSGSKSGITASLTITGLQAEDEADYYCSSYSSSSTLYVFGTGTKLTVL
B5: ADI-41484 (antibody, V domains shown)
VH: EVQLVESGPGLVKPSEALSLTCTVSGASISSYYWTWIRQSPRKGLEWIGYIYHTGRTNYNPSLKRRVTMSVDWSKNQFSLTLSSVTAADTAVYYCARLKVVPAALESAILEHHFGLDVWGQGTTVTVSS
VL: DIVMTQTPSTLSASIGDRVTLTCRASQSINRWLAWYQQKPGKAPKLLIYKASTLESGVPSRFSGSGSGTEFTLTISGLQPDDFATYYCQQYNNFPYTFGPGTKVDIK
B6: ADI-41485 (antibody, V domains shown)
VH: EVQLLESGPGLVRPSETLSLTCTVSGGSLDSGPHYWNWIRQPPGKGLEWIGYIYYSVSTNYNPSLKSRVTISMDTSKNQFSLNLTSVTAADTAVYYCASFQLIYGPQIWGQGKKVTVSS
VL: DIVLTQSPSSVSASVGDRVTITCRASQAISSWLIWSQHKPGKAPKVLIYAASSLQSGVPSRFSGSGSGTDFTLTISSLQPEDFATYYCQQANNFPLTFGGGTKVEIK
B7: ADI-41486 (antibody, V domains shown)
VH: QVQLQQWGAGLLKPSETLSLTCSVYGGSFSGYYWSWIRQPPGKGLEWIGEINHSGSTNYNPSLKSRITISVDTSKNQFSLKLNSVTAADTAVYYCARGDYAFVTFDYWGQGTLVTVSS
VL: QSVLTQPASVSGSPGQSITISCTGTSSDVGGYNYVSWYQQHPGKAPKLMIYEVSNRPSGVSNRFSGSKSGNTASLTISGLQAEDEADYYCSSYTSSSTPVFGGGTKLTVL
notes: also called Ab 767; Antibody Number 767
B8: ADI-41487 (antibody, V domains shown)
VH: QVQLVESGGGLVKPGGSLRLSCAASGFTFSTYTMNWVRQAPGKGLEWVSSISGSSAYIYYADSVKGRFTISRDNAKNSLFLQMNSLRAEDTAVYYCARLQGLVLPAVMPSYYYYSGMDVWGQGTTVTVSS
VL: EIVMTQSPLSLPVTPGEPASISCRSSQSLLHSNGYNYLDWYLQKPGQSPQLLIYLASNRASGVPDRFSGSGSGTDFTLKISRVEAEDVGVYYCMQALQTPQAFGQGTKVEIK
notes: also called Ab 768; Antibody Number 768
B9: ADI-41492 (antibody, V domains shown)
VH: QVQLVQSGAEVRKPGSSVKVSCKASGGTFNSFVISWVRQAPGQGLEWMGRIIPILATVDYAQKFQGRVTITADKSTTTAYMELSGLTSEDTAVYYCARDPPRWDTTMADYYYQGMDVWGQGTTVTVSS
VL: DIRVTQSPASLSAFVGDRVTISCRASQSIGSFLNWYQQKPGKAPKLLIYAASSLQSGVPSRFSGSGSGTDFTLAISSLQPEDFATYYCQQSYRSTPTFGGGTKVEIK
B10: ADI-41493 (antibody, V domains shown)
VH: QVQLVQSGAEVKKPGESLKISCKGSGYSFTKYWIGWVRQLPGKGLEWMGIIYPGDSETIYSPSFQGQVTISADKSVSTAYLQWSSLKASDTAMYYCARQTFVFWGESHDAFDIWGQGTTVTVSS
VL: QPVLTQPPSASGSPGQSVTISCTGTSSDVGAHNYVSWYQQHPGKAPKLMIYEVSKRPSGVPDRFSGSKSGNTASLTVSGLQAEDEADYYCSSYAGSNNWVFGGGTKLTVL
notes: also called Ab 773; Antibody Number 773
B11: ADI-41494 (antibody, V domains shown)
VH: EVQLVESGGGLVQPGRSLRLSCTTSGFTFGDYAVTWVRQAPGKGLEWIGIMKSKTYRGTTDYAASLRGRFSISRDDSKSIAYLQMTSLKSEDTGVYYCVRGHDYGDPFDYWGQGTLVTVSS
VL: QSVLTQPASVSGSPGQSITISCTGGSSDVGYYNYVSWYQQHPGKAPKLLIYDVNNRPSGVSDRFSGSKSGNTASLTISGLQPEDEADYYCSSYTRSRTWVFGGGTKLTVL
notes: also called Ab 774; Antibody Number 774
B12: ADI-41495 (antibody, V domains shown)
VH: QVQLVQSGGGLVEPGGSLRLSCAASGFTFSNTWMNWVRQAPGKGLTWVGRIKRKTDFGTSDYAAPVKGRFTISRDDSKNMVFLQMNSLKIEDTGVYYCTTHPRPYLDTTAVVYWGQGTLVTVSS
VL: QPVLTQPHSVSESPGKTVTISCIGSSGSITSNYVQWFQQRPGSAPTTVIYEDDQRPSGVPDRFSGSIDSSSNSASLTISGLKTEDEADYYCQSYHHTNPWVFGGGTKLTVL
B13: ADI-41496 (antibody, V domains shown)
VH: QVQLVQSGAEVKKPGASVKVSCKASGYTFTSDDINWVRQATGQGLEWMGWMNPNSGDTGYAQKFQGRVTMTRDTSISTAYMELSSLRSEDTAVYYCARVRIQCSGGRCSYWFFDLWGRGTLVTVSS
VL: QSALTQPASVSGSPGQSITISCIGTSSDVGNYNLVSWYQHHPGKAPKVMIYEVNERPSGVSNRFSGSKSGNTASLTISGLQAEDEADYYCCSYAGRSTWVFGGGTKLTVL
B14: ADI-41497 (antibody, V domains shown)
VH: QVQLVESGGGVVQPGRSLRLSCAASGFTFSNHAMHWVRQAPGKGLEWLSFISYDGGVNFYRDSVKGRFTISRDNSKNTLYLQMSSLRPEDTAVYYCARDRVGRVVGASYYLDYWGRGALVTVSS
VL: QSVVTQPPSVSVAPGQTASITCGGKHIGSKSVHWYQQKPGQSPVLVVHDDSDRPSGILERFSGSNSGNTATLTINRVEAGDEADYYCQVWDNASDHPYVFGPGTKVTVL
B15: ADI-41498 (antibody, V domains shown)
VH: EVQLLESGGGLVKPGGSLRLSCAASGFIFSDYAMNWVRQTPGKGLEWVSSISDSSAYKYYTGSVSGRFTISRDNAKNSLYLQMNDLRPEDTAVFYCARGQWRCSGASCYSPFDSWGQGTLVTVSS
VL: SYELTQPPSVSVAPGQTARIPCGGNNIESKNVHWYQQKPGQAPVLVVYDDSDRPSGIPERFSGSNSGSTATLTISRVEAGDEADYYCHVWHRSGDLREVFGSGTKVTVL
notes: also called Ab 778; Antibody Number 778
B16: ADI-41499 (antibody, V domains shown)
VH: EVQLVESGGVVVQPGGSLRLSCAASGFSFDDYTMYWVRQAPEKGLEWISLISWNGGVTYYPDSVKGRFTVSRDNNKNSLYLQMDSLRPEDSAFYYCAKESLESSGHFLDYWGQGTLVTVSS
VL: QPVLTQSRSVSGSPGQSVTISCIGTNSDVGGYHYVSWFQHHPGKAPKLMIYDVSRRPSGVPARFSGSKSGNTASLSISGLRAEDEADYYCCSFAGTYTPYVFGTGTKLTVL
B17: ADI-41502 (antibody, V domains shown)
VH: QVQLVQSGAEVKKPGSSVKVSCKASGGPFSSDAMSWVRQAPGQGLEWMGGIIPILGSATYAQKFKGRVTIAADESTSTSYMELSGLKYEDTAVYYCARPFYDPLTGYFDTFNVWGQGTTVTVSS
VL: QSVLTQPRSVPGSPGQSVTISCTGTSGDVGGYNYVSWYQQHPGKAPKLVIYDVTKRPSGVPDRFSGSKSGNRASLTISGLQAEDEADYYCCSYAGSQTGYVFGTGTKVTVL
notes: also called Ab 781; Antibody Number 781
B18: ADI-41503 (antibody, V domains shown)
VH: EVQLLESGGGLVQPGGSLRLSCAASGFTFSDFPLSWVRQAPGKGLVWVSAISSSGGDTYYADSVKGRFTISRDSSKNALYLQMNSLRAEDTAVYYCAKGQELLRPYYYGMDVWGQGTTVTVSS
VL: QSALIQPASVSGSPGQSITISCTGTSSDVGGYNFVSWYQQHPGKAPKLMIFEVSNRPSGVSHRFSGSKSGNTASLTISGLQAEDEADYYCSSCTSRFTYVFGTGTKLTVL
B19: ADI-41504 (antibody, V domains shown)
VH: EVQLLESGPGLLKTSETLSLTCTVSDGSISGYYWTWIRQPPGKGLECIGYISYSGSTNYSPSLKSRVTISVDTSKNQFSLKLSSVTAADTAVYYCAKIGGYCNPTKCYGWFDPWGQGTLVTVSS
VL: QPVLTQPPSVSGAPGQRVTISCTGSSSNIGAGYDVHWYQQLPGTAPKLLIFGNTNRPSGVPDRFSGSKSGTSASLAITGLQAEDEAAYYCQSYDSSLFYVVLGGGTKLTVL
notes: also called Ab 783; Antibody Number 783

Columns and labels:
[1] = target: RSV postfusion F (postF), F ΔFP (Respiratory Syncytial Virus, UniProt P03420 26-513); assay: BLI, IgG on anti-human IgG sensor, 100 nM antigen, 1:1 fit
[2] = target: RSV prefusion F (preF), DS-Cav1 (Respiratory Syncytial Virus, UniProt P03420 26-513); assay: as above
[3] = target: RSV F on RSV-A2 virus (Respiratory Syncytial Virus (RSV-A2), UniProt P03420 26-574); assay: cell-based or functional assay

| Binder | Kd [1] [nM] | Kd [2] [nM] | Neutralization IC50 (RSV subtype A) [3] [µg/mL] |
| --- | --- | --- | --- |
| B1 | 25.5 | 12.2 | > 25 |
| B2 | 0.703 | 4.34 | > 25 |
| B3 | 0.443 | 2.09 | 0.68 |
| B4 | 1.49 | 3.37 | > 25 |
| B5 | 0.782 | 3.44 | > 25 |
| B6 | 1.02 | 3.01 | > 25 |
| B7 | 0.448 | 2.86 | > 25 |
| B8 | 0.754 | 3.12 | > 25 |
| B9 | 54.8 | 182 | > 25 |
| B10 | 0.372 | 0.45 | > 25 |
| B11 | 0.44 | 2.61 | > 25 |
| B12 | 57.3 | 77.2 | > 25 |
| B13 | 1.37 | 1.65 | > 25 |
| B14 | 0.268 | 1.44 | > 25 |
| B15 | 0.22 | 1.22 | > 25 |
| B16 | 0.297 | 1.99 | > 25 |
| B17 | 0.308 | 1.34 | > 25 |
| B18 | 0.493 | 3.14 | > 25 |
| B19 | 0.508 | 2.8 | > 25 |
